Measured values from patent US20240026407A1, “MODIFICATION OF SAPONINS” (GLAXOSMITHKLINE BIOLOGICALS SA, priority 2020, published 2024).

Experiments:
Assay type in all cases: biochemical, Quillaja saponaria
[1] = Experiment 6-1: screening of rhamnosidases for derhamnosylation of saponins in treated bark extract (2%), QS-17 2296 to QS-18 2150 (PAR %); conditions: TBE 2%, pH 7.5, 30 degC, 18 h; TIC peak area ratio percent of rhamnosylated starting saponin to derhamnosylated product, LCMS/MS; negative controls 4.876, 5.225
[2] = Experiment 6-1: screening of rhamnosidases for derhamnosylation of saponins in treated bark extract (2%), desglucosyl-QS-17 2134 to QS-21 1988 (PAR %); conditions: TBE 2%, pH 7.5, 30 degC, 18 h; TIC peak area ratio percent, LCMS/MS; negative controls 2.719, 2.158
[3] = Experiment 6-1: screening of rhamnosidases for derhamnosylation of saponins in treated bark extract (2%), QS-17 2310 to QS-18 2164 (PAR %); conditions: TBE 2%, pH 7.5, 30 degC, 18 h; TIC peak area ratio percent, LCMS/MS; negative controls 3.061, 2.429
[4] = Experiment 6-2: screening of rhamnosidases for derhamnosylation of saponins in treated bark extract (25%), relative % of Left, Middle and Right Peak by UV HPLC; conditions: TBE 25%, pH 7.4, 19.5 h; for Left Peak: mainly QS-17 family, negative control 24%; for Middle Peak: mainly QS-18 and desglucosyl-QS-17 family, negative control 50%; for Right Peak: mainly QS-21 family, negative control 26%
[5] = Experiment 6-3: screening of rhamnosidases for derhamnosylation of saponins in crude bark extract (80%), relative % of Left, Middle and Right Peak by UV HPLC; conditions: CBE 80%, pH 7.4, 30 degC, 19.5 h; for Left Peak: mainly QS-17 family, negative control 27%; for Middle Peak: mainly QS-18 and desglucosyl-QS-17 family, negative control 48%; for Right Peak: mainly QS-21 family, negative control 26%
Experimental: Selected variants were expressed and lysed as in the method of experiment 6-1.
Crude bark extract (CBE) solution was adjusted to pH 7.4 by addition of NaOH (2M). 20 uL clarified lysate was transferred into fresh 96 well PCR plates. 80 uL CBE solution (pH 7.4) was added to each well of lysate to a final concentration of 80%. Plates were incubated at 30 degC with shaking for 19.5 h.
Quenched with 100 uL MeCN+2% AcOH and shaken at room temperature for 10 mins prior to centrifugation (10 min, 4 degC) to remove particulates. Samples were analysed by UV HPLC using method of Experiment 4-4.
Three key peaks of interest are apparent using this chromatography: Left Peak (retention time approximately 2.30-2.35 min) comprising mainly QS-17 family components; Middle Peak (retention time approximately 2.37-2.42 min) comprising mainly QS-18 family components and desglucosyl-QS-17 family components; and Right Peak (retention time approximately 2.44-2.50 min) comprising mainly QS-21 family components. Peak identity was supported by MS/MS.
Enzyme mediated hydrolysis of the alpha-O-rhamnosylation at the C2 position of the arabinofuranose moiety of QS-17 family components leads to a decrease in Left Peak and an increase in Middle Peak due to formation of QS-18 family components. Enzyme mediated hydrolysis of the alpha-O-rhamnosylation at the C2 position of the arabinofuranose moiety of desglucosyl-QS-17 family components leads to a decrease in Middle Peak and an increase in Right Peak due to formation of QS-21 family components.
The relative percentage of each peak was determined. A decrease in Left Peak and a concomitant increase in Middle Peak and Right Peak is observed for enzymes active under these conditions.

[6] = Experiment 6-1: specificity of rhamnosidases towards other rhamnose residues (C3 saccharide rhamnose, C28 saccharide rhamnose); conditions: TBE 2%, pH 7.5, 30 degC, 18 h; LCMS/MS; negative controls 0.18, 0.17

Molecule	QS-17 (PAR %) [1]	Peak75 (PAR %) [2]	Peak57 (PAR %) [3]	Left Peak [4]	Middle Peak [4]	Right Peak [4]	Left Peak [5]	Middle Peak [5]	Right Peak [5]	ratio PP/QS-21 [6]
1055 (protein, alpha proteobacterium) MRKAMILLTACLLSGTSALAADTLRDGFQTPPDSAKPRVWWHWLGNNVTADGIDKDLAWMRRVGIGGFQLFSGNLETPLLVDKPVVVFSPEWRAMVRHAAERADALGLEMTMAASAGWSETGGPWVKPEQAMKKLVWSETVITGAKRFQGRLPSPPTGNGPFQDMPMPPELRLPPPPPVPGARPRPPAAAHGPSPSYYADVAVVAYRLPDAVVPLGSLKPRISSSAGDAAILSDGRYDAPLRLEQKTPDGQLAWVEYTFDKPVSLPAVTLAATIEDPLNALSPSGVVEVADENGTFRDLVRVAPQEPVAFPAAAPVRTVALPEASSRRWRFRLDPIPPQALALPGMPQQTVHAVTELRFETEAMVDRWQAKAAYDTMRSYDTGPQPVRPVPARDQVVNLTARIGADGTLDWTPPPGRWQVLRIGYSLTGAKNHPADPEGTGFEVDKLDAAAVRAYLEGYLGPIDQALGDLRGAKGLKNLLTDSWEAGQANWTPALPAEFKRRRGYDLTPWLPVLTGRVVGSAADSERFLWDFRRTIADLLAEAHYKTIRDFAHEKGLGYYGEAMGTRLPTTGDGLLNKRYTDIPMGEFWQMPPGAPSDPAHTSDIAEAASAAHFYGQNLVAAEAFTALPFMPPFTATPAALKPFADRFLARGVNRFVIHTSVHQPSDDLRPGITLGPFGQYFTRHETWAEQAGAWMSYLSRSSYLQQQGRHVADIAWFVGEGGAISAPDPDRLSPALPKGYRLDFVARDAVTELLSVKDGHLLAPSGVVYRLLVVPPDARSGDLKLSLAVLRRLRDLLNQGAAVLAPRPTGSTSLSDDPAQVAALIGELWGVDTPIPRSIGKGRLYPAPDIAAALADRGVAPDLTMAGAMDADIVWSHRRTDDADIWFVANQKDRAESVTLSLRGDGRDVSLWHADSGAVEPAPFRQEAGRTSVPLTLSPNQAIFIVQRGSAPATARDVATPVEAESLALSGVWTLFFPKGQAMPDSVPLPKLGLWNDMSDPAVRHFSGTATYATEVKLPAAWAGKPVWIDLGAVHEVATVRVNGTEAGIAWKQPYRIDVGPLLKAGTNKLEVAVSNLWPNRIVGDAGGAGGVRVTTNTHPLLHPDTKARLLPSGLAGPVRLVRMELPGGNG	0.019%	0.000%	0.000%	7%	62%	31%	25%	48%	27%	0.19
1075 (protein, listed as Asticcacaulis sp.) MTRLNRRHFLAASGLAATVAPTMSRSKTLAKTALGVTDLRAEQSENLLGTQAREPRLSWRLTGTERGIMQAGYRLRAGSKPGTADLWDSGNIASDACFDIPYKGKPLNAMQRVWWTVEVRDAKGRTATSAPAWFETGLLAPGDWKAQWIVAEDALAEGDRKAGLQWIWSEKALDNRLHAFRLDFDVPANLASSEVLIAGKDWIRGVWANGEQLPTPDQLVPNWGTLVPVPAKLKPGKNSVCVLVQAETTGFFPVDGGAFAALIRLRLSDGTIKRLVSDTNWKVRPLPPEAWTTADFDASGWVRAQKSGADAQNDPRPAEPAMLLRKAFTPAKKVVNARLYATALGAYEARLNGQPVSTAKMAPEISVTKDHIYYQTYDVTKLIRAGDNALGVVMGDGFYASAFGWRLERYGFGPAPRRLLAQLRLDYADGTSEWIVTDDSWRIGQSPIVTSEIYDGEVFDARLKTDGWDKTGFNAARWPAVRLGQAPHTKIVAQTGPLLVPVSKRRGTITQPKPGIYVIDFGQNFAGWARLNVKGTSGHTVTLKFAEYLKADGEVDQANLRMAKCRDIYTLRGDAGGETFEPSFTYHGFRYVQVENFPGVPTPADIEGIVVTSYCRETGRMTFDDPIIQKFWQNSVWSQRSNFFMVPTDCPQRDERMGWMGDIQVFLDAATFNMECDPFIRRYLDEVRASQTAEGAFPIVCPQPESFPEVTTAGWSEAGVILPWTLWRRYGDTAVIDENWVAMTKWMDYLFKYNPDYVWRKERGLDLGDWLSVDAVKPDDETTPRILCATGYWAYCADLMTQMAAATGREAEAAKYREVRAKIGAAFAKEFVDKDGKAGNGSQTSQILALYFNLVPAERRAAAGEILAKEIRGRGMKLSTGFLGTPYLLDVLADTGHLEEVSGLLKQREKPSWGYMPLKGATTMWERWDGDTGDLAMNSYNHYAYGAVCGFMYRRLAGLAPAAPGFRKMTVEPIYLPHVGKVTANYESCLGTMAGAVTGNASGLKTYDLTVPPNAVAEVILPDGAWREGGKALTGHADIRALRRDSGKVRFEVGSGSYRFKI	0.043%	0.000%	0.000%	9%	61%	30%	26%	47%	27%	0.18
1068 (protein, listed as Pedobacter heparinus) MINQIFKFSFFALNLLAWYSFTAKSQDLKVFDKATSWITCDKAQDQSNSWIAFRKVVQLDEKPVKALLDISVDSKYWLYINEKLVVFEGGLKRGPNPDDTYYDEADLTEYLKAGTNTIAVLLWYFGKNGFSHHSSGRAGMFFQLDMDKQGKICSDRSWKCSVVPAYLNVYSGDQPNYRLAESNVIYDARLALGDWTSASYNDKTWRNPFVVGPAGCMPWNKLVKRPIPQWKDYGIVNFNLNFPFNATGDTIKVKLPYNAQFTPYLKVEATAGKTIEMFTDNYSGGSENNVRAEYITKTGIQEYESFGWMNGHVMMFVIPKGAKVLSLGYRETGYHTTFAGSFNCNDAFYNKLWEKSSRTLYVNMRDSYMDCPDRERAQWWGDEVTEMTQSFYALDPDANLLAKKGIDELTGWQRSDGVLFSPIPAGNFDLELPVQMLTSVGYYGFWTYYYYTGDLETIRAAYPSIRKYLSLWEMDKNGLVISRTGGWNWGDWGKNVDIDLMSNAWYYLACKGYLEMSKTLNHAEEIKWAENQMSVMKKSFDTRFWTGKAYRSPDYKGQTDDRSNALAVLAGLTAPAKYPLLKDVFLTEEHSSPYMEKYVLEALFKMGYADIALERLKKRYTAMVDSELTTLWEGWKIGVNGYGGGSYNHAWSGGGLILLSRFVAGIEPASPGYETVKIAPQMGSLINCSATVSSVAGLIAVKNTFTNEKEFNQLIESPSPLKIYFPFEVYRIKKIRVNNKKLSEALMLKFKNEGKLELSKGKYKLTVNIN	5.521%	2.370%	3.156%							0.17
999 (protein, listed as Prevotella ruminicola) MRKFLTIICVACCYASATFAQAWPQPKPEAKPGTRWWWLGSAVNQRDLQWNLQEYARAGIGAVEITPIYGVKGNDANNIAYLSPQWMQALQSVQDIARPLGIEVDMNCGTGWPFGGPHISLDQAACRAIIKDTIINGKHQYEVEIGHTKQKVKRAAPGGEGWVVDHFDRNAVAHYLDRFEQAFATSGVPYPHTFFNDSYEVYKADWTPTLFDEFQKRRGYDLRTKLPELLGKVDDGNQTLADYRETLSDMLLENFTQQWVAWAHKHGVKVRNQAHGSPANLLDLYAAVDIPEIEGFGLSEFGIKGLRTDPGKTRKNDSDVSMLKYASSAAHVMGKPFTSSETFTWLTEHFRTSLSQMKPDLDLMFTCGVNHVYFHGSCYTPQNAAWPGWKFYASVDMSPTNSIWRDAPFLMKYIERSQSFLQLGEPDNDFLVYLPVRDMWHQRDNNNTLLMQFDIHSMAKKAPQFIRSILTIDSLGYDCDYISDRQLAKVRMQDGMLVTEGGTRYKALIIPSGTTIDASLQAQINRLNAYVIRGEQAADMAKFAKAEQMKTTYGLRAIRRHTADGWHYFIVNLTPKDITGDVTLAVPFESATWFNPMNGDIQPAEVHNGQLHIALKSGESRILQTSNQPSTNITTTASGTEEITLQGPWVLSFTDESPRVEGTFKLNKLQTWETLSDSAAVTMGTGVYTTSIKLSAQQAKQHWQIDLGDVRESARVYINSQFVGCAWAVPFILDCGNTLHKGKNEIRIEVTNLPANRIAELDRKGVQWRKFNEINVVDINYKNTTYADWKPVPSGLNTTVKLVR	5.614%	2.571%	2.714%							0.16
